In patent US20030157554A1 (published 2003):
Read-outs that look alike come from different tables or passages of the source.

B1: ATPase (ATP6N1) (Genbank ID: u73006) (other, human, UniProt Q93050 1-300, looked up)
chain: MGELFRSEEMTLAQLFLQSEAAYCCVSELGELGKVQFRDLNPDVNVFQRKFVNEVRRCEEMDRKLRFVEKEIRKANIPIMDTGENPEVPFPRDMIDLEANFEKIENELKEINTNQEALKRNFLELTELKFILRKTQQFFDEMADPDLLEESSSLLEPSEMGRGTPLRLGFVAGVINRERIPTFERMLWRVCRGNVFLRQAEIENPLEDPVTGDYVHKSVFIIFFQGDQLKNRVKKICEGFRASLYPCPETPQERKEMASGVNTRIDDLQMVLNQTEDHRQRVLQAAAKNIRVWFIKVRKM
notes: range 1-~300; Prey from liver library; end of the fragment approximate; also called Vacuolar-type H(+) ATPase; ATP6N17
B2: FHOS (Genbank ID: AF113615) (other, human, UniProt Q9Y613 964-1164, looked up)
chain: TPQAAREVRIMQFCHTLREFALEYRTCRERVLQQQQKQATYRERNKTRGRMITETEKFSGVAGEAPSNPSVPVAVSSGPGRGDADSHASMKSLLTSRPEDTTHNRRSRGMVQSSSPIMPTVGPSTASPEEPPGSSLPSDTSDEIMDLLVQSVTKSSPRALAARERKRSRGNRKSLRRTLKSGLGDDLVQALGLSKGPGLEV
notes: range 964-1164; Prey from muscle library
B3: STAU (Genbank ID: AF061939) (other, human, UniProt O95793 6-577, looked up)
chain: VQVQNPSAALSGSQILNKNQSLLSQPLMSIPSTTSSLPSENAGRPIQNSALPSASITSTSAAAESITPTVELNALCMKLGKKPMYKPVDPYSRMQSTYNYNMRGGAYPPRYFYPFPVPPLLYQVELSVGGQQFNGKGKTRQAAKHDAAAKALRILQNEPLPERLEVNGRESEEENLNKSEISQVFEIALKRNLPVNFEVARESGPPHMKNFVTKVSVGEFVGEGEGKSKKISKKNAAIAVLEELKKLPPLPAVERVKPRIKKKTKPIVKPQTSPEYGQGINPISRLAQIQQAKKEKEPEYTLLTERGLPRRREFVMQVKVGNHTAEGTGTNKKVAKRNAAENMLEILGFKVPQAQPTKPALKSEEKTPIKKPGDGRKVTFFEPGSGDENGTSNKEDEFRMPYLSHQQLPAGILPMVPEVAQAVGVSQGHHTKDFTRAAPNPAKATVTAMIARELLYGGTSPTAETILKNNISSGHVPHGPLTRPSEQLDYLSRVQGFQVEYKDFPKNNKNEFVSLINCSSQPPLISHGIGKDVESCHDMAALNILKLLSELDQQSTEMPRTGNGPMSVCGRC
notes: range 6-578; Prey from brain library; also called Staufen
B4: LZIP (Genbank ID: AF029674) (other, human, UniProt O43889 1-371, looked up)
chain: MELELDAGDQDLLAFLLEESGDLGTAPDEAVRAPLDWALPLSEVPSDWEVDDLLCSLLSPPASLNILSSSNPCLVHHDHTYSLPRETVSMDLESESCRKEGTQMTPQHMEELAEQEIARLVLTDEEKSLLEKEGLILPETLPLTKTEEQILKRVRRKIRNKRSAQESRRKKKVYVGGLESRVLKYTAQNMELQNKVQLLEEQNLSLLDQLRKLQAMVIEISNKTSSSSTCILVLLVSFCLLLVPAMYSSDTRGSLPAEHGVLSRQLRALPSEDPYQLELPALQSEVPKDSTHQWLDGSDCVLQAPGNTSCLLHYMPQAPSAEPPLEWPFPDLFSEPLCRGPILPLQANLTRKGGWLPTGSPSVILQDRYSG
notes: range 1-372; Prey from liver and muscle libraries; also called LIZP
B5: Synphilin (Genbank ID: AF076929) (other, human, UniProt Q9Y6H5 335-660, looked up)
chain: PHLAADNLDKIHDENGNNLLHIAASQGHAECLQHLTSLMGEDCLNERNTEKLTPAGLAIKNGQLECVRWMVSETEAIAELSCSKDFPSLIHYAGCYGQEKILLWLLQFMQEQGISLDEVDQDGNSAVHVASQHGYLGCIQTLVEYGANVTMQNHAGEKPSQSAERQGHTLCSRYLVVVETCMSLASQVVKLTKQLKEQTVERVTLQNQLQQFLEAQKSEGKSLPSSPSSPSSPASRKSQWKSPDADDDSVAKSKPGVQEGIQVLGSLSASSRARPKAKDEDSDKILRQLLGKEISENVCTQEKLSLEFQDAQASSRNSKKIPLEKR
notes: range 335-~660; Prey from kidney library; end of the fragment approximate; also called Synphilin I; Synphilin 1

Legend:
Assay in all cases: Y2H 1x1 mating, binder AD fusion, target BD fusion
[1] = target: B5
[2] = target: S100A6 (Genbank ID: M14300) (human, UniProt P06703 1-90)
[3] = target: the molecule itself
[4] = target: B1
[5] = target: the molecule itself; remark: listed apart in the source
[6] = target: the molecule itself; remark: listed apart in the source

Row | Binder | binding result [1] | binding result [2] | binding result [3] | also measured
1 | B1 | no binding | no binding | no binding | 
2 | B2 | no binding | no binding | no binding | binding result [4]: no binding
3 | B3 |  |  |  | binding result [5]: no binding
4 | B4 |  |  |  | binding result [6]: no binding
5 | B5 |  | no binding |  | 
